From the supplement of paper PMC10567573

B1: CDKN1A (parent)
chain: RRQTSMTDFYHSKRRLIFSKRKP

Variants of: B1
Experiment: protein stability index of a GFP-peptide fusion (GPS, HEK-293T) (PSI 1-6); higher = more stable
Conditions: c terminus: native
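Further: lentivirally expressed fusions sorted by FACS into six bins by GFP to DsRed ratio, PSI derived from sequencing read proportions per bin multiplied by bin number.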

Point of comparison: RDQTSMTDFYHSKRRLIFSKRKP, protein stability index 2.5. Against it:
- RRQTSMWDFYHSKRRLIFSKRKP — lower, 1.87
- RRQTSMNDFYHSKRRLIFSKRKP — higher, 3.04
- RRQTSMRDFYHSKRRLIFSKRKP — lower, 1.87
- RRQTSMKDFYHSKRRLIFSKRKP — lower, 2.19
- RRQTSMYDFYHSKRRLIFSKRKP — lower, 1.79
- RRQTSMEDFYHSKRRLIFSKRKP — higher, 3.61
- RRQTSMHDFYHSKRRLIFSKRKP — lower, 2.4
- RRQTSMCDFYHSKRRLIFSKRKP — lower, 1.94
- RRQTSMTDFYHSKRRLIFSKRNP — higher, 3.35
- RRQTSMTDFYHSKRRLIFSKRQP — lower, 2.42
- RRQTSMTDFYHSKRRLIFSKRSP — higher, 3.2
- RRQTSMTDFYHSKRRLIFSKRTP — higher, 2.58
- RRQTSMTDFYHSKRRLIFSKRFP — lower, 1.77
- RRQTSMTDFYHSKRRLIFSKRDP — lower, 1.85
- RRQTSMTDFYHSKRRLIFSKRRP — higher, 4.35
- RRQTSMTDFYHSKRRLIFSKRYP — higher, 2.55
- RRQTSMTDFYHSKRRLIFSKRWP — higher, 2.91
- RRQTSMTDFYHSERRLIFSKRKP — higher, 3.4
- RRQTSMTDFYHSSRRLIFSKRKP — higher, 3.39
- RRQTSMTDFYHSNRRLIFSKRKP — higher, 2.55
- RRQTSMTDFYHSLRRLIFSKRKP — higher, 2.51
- RRQTSMTDFYHSTRRLIFSKRKP — lower, 2.31
- RRQTSMTDFYHSHRRLIFSKRKP — lower, 1.75
- RRQTSMTDFYHSPRRLIFSKRKP — higher, 3.13
- RRQTSMTDFYHSQRRLIFSKRKP — lower, 1.8
- RRQTSMTDFYHSVRRLIFSKRKP — lower, 2.27
- RRQTSMTDFYHSWRRLIFSKRKP — higher, 2.83
- RRQTSMTDFYHSYRRLIFSKRKP — lower, 2.37
- RRQTSMTDFYHSCRRLIFSKRKP — higher, 3.33
- RRQFSMTDFYHSKRRLIFSKRKP — lower, 2.21
- RRQESMTDFYHSKRRLIFSKRKP — higher, 3.64
- RRQLSMTDFYHSKRRLIFSKRKP — lower, 2.1
- RRQRSMTDFYHSKRRLIFSKRKP — lower, 1.8
- RRQPSMTDFYHSKRRLIFSKRKP — higher, 2.86
- RRQYSMTDFYHSKRRLIFSKRKP — lower, 2.22
- RRQSSMTDFYHSKRRLIFSKRKP — higher, 2.62
- RRQWSMTDFYHSKRRLIFSKRKP — higher, 4.11
- RRQTFMTDFYHSKRRLIFSKRKP — lower, 1.93
- RRQTTMTDFYHSKRRLIFSKRKP — lower, 2.38
- RRQTRMTDFYHSKRRLIFSKRKP — higher, 2.53
- RRQTKMTDFYHSKRRLIFSKRKP — higher, 2.87
- RRQTQMTDFYHSKRRLIFSKRKP — higher, 2.55
- RRQTGMTDFYHSKRRLIFSKRKP — higher, 3.9
- RRQTAMTDFYHSKRRLIFSKRKP — higher, 3
- RRQTNMTDFYHSKRRLIFSKRKP — lower, 1.73
- RRQTHMTDFYHSKRRLIFSKRKP — higher, 3.12
- RRQTDMTDFYHSKRRLIFSKRKP — higher, 2.95
- RRQTCMTDFYHSKRRLIFSKRKP — lower, 1.67
- RRQTEMTDFYHSKRRLIFSKRKP — the same, 2.5
- RRQTPMTDFYHSKRRLIFSKRKP — lower, 1.9
- RRQTSMTDFYSSKRRLIFSKRKP — higher, 2.69
- RRQTSMTDFYVSKRRLIFSKRKP — lower, 1.43
- RRQTSMTDFYPSKRRLIFSKRKP — lower, 2.49
- RRQTSMTDFYQSKRRLIFSKRKP — higher, 2.55
- RRQTSMTDFYKSKRRLIFSKRKP — higher, 3.46
- RRQTSMTDFYNSKRRLIFSKRKP — lower, 1.47
- RRQTSMTDFYESKRRLIFSKRKP — lower, 2.37
- RRQTSMTDFYLSKRRLIFSKRKP — higher, 3.32
- RRQTSMTDFYFSKRRLIFSKRKP — higher, 2.93
- RRQTSMTDFYISKRRLIFSKRKP — lower, 2.03
- RRQTSMTDFYGSKRRLIFSKRKP — higher, 2.88
- RRQTSMTDFYDSKRRLIFSKRKP — lower, 1.65
- RRQTSMTDFYASKRRLIFSKRKP — lower, 2.49
- RRLTSMTDFYHSKRRLIFSKRKP — higher, 4.67
- RRFTSMTDFYHSKRRLIFSKRKP — lower, 2.24
- RRSTSMTDFYHSKRRLIFSKRKP — lower, 2.27
- RRTTSMTDFYHSKRRLIFSKRKP — higher, 2.71
- RRQTSMTDFYHSKRRLIFSPRKP — lower, 1.54
- RRQTSMTDFYHSKRRLIFSVRKP — lower, 2.1
- RRQTSMTDFYHSKRRLIFSSRKP — lower, 2.23
- RRQTSMTDFYHSKRRLIFSERKP — lower, 2.33
- RRQTSMTDFYHSKRRLIFSARKP — higher, 2.73
- RRQTSMTDFYHSKRRLIFSMRKP — lower, 1.81
- RRQTSMTDFYHSKRRLIISKRKP — lower, 2.23
- RRQTSMTDFYHSKRRLIRSKRKP — lower, 2.05
- RRQTSMTDFYHSKRRLIYSKRKP — lower, 2.46
- RRQTSMTDFYHSKRRLISSKRKP — higher, 3.17
- RRQTSMTDFYHSKRRLIKSKRKP — lower, 2.26
- RRQTSMTDFYHSKRRLIASKRKP — higher, 2.87
- RRQTSMTDFYHSKRRLIPSKRKP — higher, 2.82
- RRQTSMTDFYHSKRRLIWSKRKP — lower, 2.28
- RRQTSMTDFYHSKRRLICSKRKP — lower, 1.69
- RRQTSMTDFYHSKRRLITSKRKP — lower, 2.45
- RRQTSMTDFYHSKRRLIQSKRKP — lower, 1.79
- WRQTSMTDFYHSKRRLIFSKRKP — higher, 2.69
- SRQTSMTDFYHSKRRLIFSKRKP — higher, 2.99
- NRQTSMTDFYHSKRRLIFSKRKP — higher, 2.77
- LRQTSMTDFYHSKRRLIFSKRKP — lower, 1.96
- YRQTSMTDFYHSKRRLIFSKRKP — higher, 2.74
- ERQTSMTDFYHSKRRLIFSKRKP — higher, 3
- GRQTSMTDFYHSKRRLIFSKRKP — lower, 1.02
- ARQTSMTDFYHSKRRLIFSKRKP — lower, 1.71
- TRQTSMTDFYHSKRRLIFSKRKP — higher, 3.87
- QRQTSMTDFYHSKRRLIFSKRKP — lower, 1.72
- KRQTSMTDFYHSKRRLIFSKRKP — higher, 2.57
- RRQTSMTDFYHVKRRLIFSKRKP — lower, 2.01
- RRQTSMTDFYHPKRRLIFSKRKP — lower, 2.31
- RRQTSMTDFYHAKRRLIFSKRKP — higher, 2.99
- RRQTSMTDFYHYKRRLIFSKRKP — lower, 2.15
- RRQTSMTDFYHFKRRLIFSKRKP — lower, 1.59
- RRQTSMTDFYHMKRRLIFSKRKP — higher, 2.75
- RRQTSMTDFYHCKRRLIFSKRKP — higher, 2.98
- RRQTSMTDFYHWKRRLIFSKRKP — lower, 2.39
- RRQTSMTDFYHNKRRLIFSKRKP — higher, 3.42
- RRQTSMTDFYHSKERLIFSKRKP — higher, 3.86
- RRQTSMTDFYHSKARLIFSKRKP — lower, 2.14
- RRQTSMTDFYHSKKRLIFSKRKP — higher, 4.64
- RRQTSMTDFYHSKWRLIFSKRKP — higher, 3.61
- RRQTSMTDFYHSKLRLIFSKRKP — higher, 3.27
- RRQTSMTDFYHSKIRLIFSKRKP — lower, 2.18
- RRQTSMTDFYHSKTRLIFSKRKP — lower, 1.99
- RRQTSMTDFYHSKHRLIFSKRKP — higher, 4.02
- RRQTSMTDFYHSKRALIFSKRKP — higher, 2.94
- RRQTSMTDFYHSKRYLIFSKRKP — lower, 2.23
- RRQTSMTDFYHSKRQLIFSKRKP — lower, 2.41
- RRQTSMTDFYHSKRCLIFSKRKP — higher, 3.8
- RRQTSMTDFYHSKRDLIFSKRKP — higher, 3.82
- RPQTSMTDFYHSKRRLIFSKRKP — higher, 3.33
- RAQTSMTDFYHSKRRLIFSKRKP — lower, 2.1
- RKQTSMTDFYHSKRRLIFSKRKP — lower, 1.75
- RLQTSMTDFYHSKRRLIFSKRKP — lower, 1.97
- RWQTSMTDFYHSKRRLIFSKRKP — lower, 2.28
- RNQTSMTDFYHSKRRLIFSKRKP — higher, 3.28
- RRQTSMTDFYHSKRRLIFLKRKP — lower, 2.33
- RRQTSMTDFYHSKRRLIFMKRKP — higher, 2.96
- RRQTSMTDFYHSKRRLIFWKRKP — lower, 1.71
- RRQTSMTDFYHSKRRLIFFKRKP — lower, 2.44
- RRQTSMTDFYHSKRRLIFCKRKP — higher, 2.57
- RRQTSMTDFYHSKRRLIFPKRKP — lower, 2.08
- RRQTSMTDFYHSKRRLIFSKRKC — higher, 3.15
- RRQTSMTDFYHSKRRLIFSKRKW — higher, 3.55
- RRQTSMTDFYHSKRRLIFSKRKL — higher, 2.84
- RRQTSMTDFYHSKRRLIFSKRKV — higher, 2.57
- RRQTSMTDFYHSKRRLIFSKRKY — higher, 3.15
- RRQTSMTDFYHSKRRLIFSKRKG — lower, 2.48
- RRQTSMTDFYHSKRRLIFSKRKI — higher, 2.74
- RRQTSMTDFYHSKRRLIFSKRKD — lower, 2.49
- RRQTSMTDFYHSKRRLIFSKRKK — higher, 2.95
- RRQTSPTDFYHSKRRLIFSKRKP — lower, 1.34
- RRQTSATDFYHSKRRLIFSKRKP — higher, 2.57
- RRQTSITDFYHSKRRLIFSKRKP — lower, 2.14
- RRQTSKTDFYHSKRRLIFSKRKP — higher, 3.44
- RRQTSFTDFYHSKRRLIFSKRKP — lower, 2.03
- RRQTSMTGFYHSKRRLIFSKRKP — lower, 2.29
- RRQTSMTKFYHSKRRLIFSKRKP — higher, 3.12
- RRQTSMTMFYHSKRRLIFSKRKP — higher, 2.65
- RRQTSMTTFYHSKRRLIFSKRKP — higher, 3.06
- RRQTSMTDFYHSKRRLPFSKRKP — higher, 3.06
- RRQTSMTDFYHSKRRLKFSKRKP — lower, 1.86
- RRQTSMTDFYHSKRRLGFSKRKP — lower, 1.79
- RRQTSMTDFYHSKRRLTFSKRKP — higher, 2.63
- RRQTSMTDFYHSKRRLMFSKRKP — higher, 3.71
- RRQTSMTDFYHSKRRLYFSKRKP — higher, 2.76
- RRQTSMTDFYHSKRRLLFSKRKP — higher, 3.47
- RRQTSMTDFYHSKRRLAFSKRKP — lower, 2.48
- RRQTSMTDHYHSKRRLIFSKRKP — higher, 4.22
- RRQTSMTDIYHSKRRLIFSKRKP — higher, 3.36
- RRQTSMTDRYHSKRRLIFSKRKP — higher, 2.54
- RRQTSMTDYYHSKRRLIFSKRKP — higher, 3.43
- RRQTSMTDCYHSKRRLIFSKRKP — higher, 2.71
- RRQTSMTDGYHSKRRLIFSKRKP — lower, 2.02
- RRQTSMTDLYHSKRRLIFSKRKP — lower, 2.24
- RRQTSMTDKYHSKRRLIFSKRKP — lower, 2.4
- RRQTSMTDDYHSKRRLIFSKRKP — higher, 2.72
- RRQTSMTDFYHSKRRLIFSKGKP — higher, 3.01
- RRQTSMTDFYHSKRRLIFSKYKP — higher, 2.97
- RRQTSMTDFYHSKRRLIFSKMKP — higher, 3.37
- RRQTSMTDFYHSKRRLIFSKSKP — higher, 3.09
- RRQTSMTDFYHSKRRLIFSKFKP — lower, 2.03
- RRQTSMTDFYHSKRRLIFSKAKP — the same, 2.5
- RRQTSMTDFYHSKRRLIFSKQKP — lower, 2.4
- RRQTSMTDFYHSKRRLIFSKIKP — higher, 4.52
- RRQTSMTDFYHSKRRLIFSKTKP — higher, 3.55
- RRQTSMTDFYHSKRRLIFSKLKP — higher, 2.67
- RRQTSMTDFYHSKRRLIFSKVKP — higher, 3.09
- RRQTSMTDFYHSKRRLIFSKNKP — higher, 2.79
- RRQTSMTDFKHSKRRLIFSKRKP — lower, 1.57
- RRQTSMTDFMHSKRRLIFSKRKP — higher, 3.11
- RRQTSMTDFNHSKRRLIFSKRKP — lower, 1.72
- RRQTSMTDFVHSKRRLIFSKRKP — higher, 2.77
- RRQTSMTDFCHSKRRLIFSKRKP — lower, 1.4
- RRQTSMTDFQHSKRRLIFSKRKP — higher, 2.75
- RRQTSMTDFRHSKRRLIFSKRKP — higher, 3.01
- RRQTSMTDFWHSKRRLIFSKRKP — higher, 2.66
- RRQTSMTDFYHSKRRYIFSKRKP — lower, 1.65
- RRQTSMTDFYHSKRRGIFSKRKP — higher, 3.3
- RRQTSMTDFYHSKRRTIFSKRKP — lower, 2.17
- RRQTSMTDFYHSKRRSIFSKRKP — higher, 2.86
- RRQTSMTDFYHSKRRKIFSKRKP — lower, 2.21
- RRQTSMTDFYHSKRRQIFSKRKP — higher, 2.53
- RRQTSMTDFYHSKRRPIFSKRKP — higher, 3.36
- RRQTSMTDFYHSKRRHIFSKRKP — higher, 2.87
- RRQTSMTDFYHSKRRCIFSKRKP — lower, 2.32
